Measurements reported in article PMC5173322, “Neurodegenerative disease mutations in TREM2 reveal a functional surface and distinct loss-of-function mechanisms” (eLife, 2016).
Positions count from the first letter of the chain named. In names and notes the source's numbering stands.

B1: human TREM2 ectodomain Y38C (domain or fragment, UniProt Q9NZC2 19-134, looked up)
chain: HNTTVFQGVAGQSLQVSCPCDSMKHWGRRKAWCRQLGEKGPCQRVVSTHNLWLLSFLRRWNGSTAITDDTLGGTLTITLRNLQPHDAGLYQCQSLHGSEADTLRKVLVEVLADPLD
notes: TREM2, human, ectodomain, limits as the WT ectodomain (amino acids 19-134), Nasu-Hakola disease mutation Y38C; it was detected by anti-6His Western blot; also called NHD mutant Y38C; source: Freestyle 293F cells, transfected, secreted; harvested for preparative SEC; not shown: His6, C-terminal, kept
B2: human TREM2 ectodomain T66M (domain or fragment, UniProt Q9NZC2 19-134, looked up)
chain: B1 chain with C20Y, T48M
notes: TREM2, human, ectodomain, limits as the WT ectodomain (amino acids 19-134), Nasu-Hakola disease mutation T66M; it was detected by anti-6His Western blot; also called NHD mutant T66M; source: Freestyle 293F cells, transfected, secreted; harvested for preparative SEC; not shown: His6, C-terminal, kept
B3: human TREM2 ectodomain V126G (domain or fragment, UniProt Q9NZC2 19-134, looked up)
chain: B1 chain with C20Y, V108G
notes: TREM2, human, ectodomain, limits as the WT ectodomain (amino acids 19-134), Nasu-Hakola disease mutation V126G; it was detected by anti-6His Western blot; also called NHD mutant V126G; source: Freestyle 293F cells, transfected, secreted; harvested for preparative SEC; not shown: His6, C-terminal, kept

Target: the molecule itself
Assay: SEC; preparative SEC of NHD mutant ectodomains harvested from 293F suspension cells; fractions analysed by anti-6His Western blot

Binding result, binds:
B1
B2
B3
